Experimental data as given in article PMC12132378 (bioRxiv, 2025).

Molecular target: Ub-Lys-TAMRA (UniProt P0CG48 1-76, Ub is isopeptide-linked to a TAMRA-labeled Lys-Gly dipeptide (modification at the Ub C-terminus))
Assay: fluorescence polarisation

B1: RNF114 (wild type, full length) (enzyme)
chain: MAAQQRDCGGAAQLAGPAAEADPLGRFTCPVCLEVYEKPVQVPCGHVFCSACLQECLKPKKPVCGVCRSALAPGVRAVELERQIESTETSCHGCRKNFFLSKIRSHVATCSKYQNYIMEGVKATIKDASLQPRNVPNRYTFPCPYCPEKNFDQEGLVEHCKLFHSTDTKSVVCPICASMPWGDPNYRSANFREHIQRRHRFSYDTFVDYDVDEEDMMNQVLQRSIIDQ
Kd: ~20 µM
